First the molecules themselves.
B4: Rpn5, subunit of LP2 and lid purified from yeast (natural protein, S. cerevisiae, UniProt Q12250 1-445, looked up)
chain: MSRDAPIKADKDYSQILKEEFPKIDSLAQNDCNSALDQLLVLEKKTRQASDLASSKEVLAKIVDLLASRNKWDDLNEQLTLLSKKHGQLKLSIQYMIQKVMEYLKSSKSLDLNTRISVIETIRVVTENKIFVEVERARVTKDLVEIKKEEGKIDEAADILCELQVETYGSMEMSEKIQFILEQMELSILKGDYSQATVLSRKILKKTFKNPKYESLKLEYYNLLVKISLHKREYLEVAQYLQEIYQTDAIKSDEAKWKPVLSHIVYFLVLSPYGNLQNDLIHKIQNDNNLKKLESQESLVKLFTTNELMRWPIVQKTYEPVLNEDDLAFGGEANKHHWEDLQKRVIEHNLRVISEYYSRITLLRLNELLDLTESQTETYISDLVNQGIIYAKVNRPAKIVNFEKPKNSSQLLNEWSHNVDELLEHIETIGHLITKEEIMHGLQAK
notes: Rpn5, S. cerevisiae proteasome lid subunit; source: purified from S. cerevisiae as part of LP2 or lid

Holding throughout (settings): both partners purified
The target of test [1] is T1, lid particle 2 (LP2), recombinant (S. cerevisiae, UniProt P40016 1-523; Q12250 1-445; Q12377 1-434; Q06103 1-429; Q08723 1-338; Q04062 …).
T1 construct: Rpn3, S. cerevisiae proteasome lid subunit; Rpn5, S. cerevisiae proteasome lid subunit; Rpn6, S. cerevisiae proteasome lid subunit; Rpn7, S. cerevisiae proteasome lid subunit; Rpn8, S. cerevisiae proteasome lid subunit; Rpn9, S. cerevisiae proteasome lid subunit; Rpn11, S. cerevisiae proteasome lid subunit; Sem1, S. cerevisiae proteasome lid subunit; legends speak of 'untagged LP2'; operons as in …
As to the kind of experiment: native gel or EMSA; RP assembly assay: recombinant components 1 uM each with 10 uM Rpn10 in 26S buffer (50 mM Tris-HCl pH 7.5, 5 mM MgCl2, 10% glycerol, 1 mM ATP), 30°C 20 min; native PAGE at 4°C; Coomassie or immunoblot (FLAG on Rpt1, HA on Rpn7, Rpn12).

Test [2] deals with T2, Rpn3, subunit of LP2 and lid purified from yeast (S. cerevisiae, UniProt P40016 1-523).
T2 construct: Rpn3, S. cerevisiae proteasome lid subunit; source: purified from S. cerevisiae as part of LP2 or lid
T2 sequence (looked up): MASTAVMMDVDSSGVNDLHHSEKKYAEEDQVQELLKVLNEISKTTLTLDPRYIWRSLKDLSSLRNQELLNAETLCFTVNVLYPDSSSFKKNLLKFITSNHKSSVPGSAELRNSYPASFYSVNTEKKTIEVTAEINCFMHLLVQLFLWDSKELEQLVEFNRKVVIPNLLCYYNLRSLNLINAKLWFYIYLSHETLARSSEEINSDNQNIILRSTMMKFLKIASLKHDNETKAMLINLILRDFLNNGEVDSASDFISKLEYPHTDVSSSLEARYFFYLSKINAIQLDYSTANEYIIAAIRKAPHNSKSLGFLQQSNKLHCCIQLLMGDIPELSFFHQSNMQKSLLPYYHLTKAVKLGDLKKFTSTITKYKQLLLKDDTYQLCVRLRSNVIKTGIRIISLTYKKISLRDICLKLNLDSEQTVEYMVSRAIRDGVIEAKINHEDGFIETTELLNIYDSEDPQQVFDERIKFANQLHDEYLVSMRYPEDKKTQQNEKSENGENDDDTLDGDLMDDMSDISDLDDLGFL
As to the kind of experiment: negative-stain EM; single-particle 3D reconstruction of LP2 purified from yeast at 16 Å; ~50 nM complex in Buffer A, 2% uranyl acetate.

Test [3] deals with B4. As to the kind of experiment: cross-linking; QCLMS of lid purified from yeast as a whole complex: BS3-d0 / BS3-d4 at 1:200 protein to cross-linker, Buffer HA, 30°C 1 h; monomeric cross-linked complex cut from SDS-PAGE, trypsin, LC-MS/MS.
For test [4], the target named is T3, Rpn8, subunit of LP2 and lid purified from yeast (S. cerevisiae, UniProt Q08723 1-338).
T3 construct: Rpn8, S. cerevisiae proteasome lid subunit; source: purified from S. cerevisiae as part of LP2 or lid
T3 sequence (looked up): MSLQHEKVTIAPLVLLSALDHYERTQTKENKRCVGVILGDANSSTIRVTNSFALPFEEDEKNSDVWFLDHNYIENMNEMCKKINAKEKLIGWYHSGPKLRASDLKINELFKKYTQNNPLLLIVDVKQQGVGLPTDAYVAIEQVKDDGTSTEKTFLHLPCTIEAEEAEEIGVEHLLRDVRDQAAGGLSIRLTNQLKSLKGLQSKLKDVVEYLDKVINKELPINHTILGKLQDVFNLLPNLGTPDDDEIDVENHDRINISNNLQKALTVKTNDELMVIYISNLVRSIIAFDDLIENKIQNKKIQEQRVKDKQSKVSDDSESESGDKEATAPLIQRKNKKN
The description is as above.

Test [5] has as its target T4, Rpn7, subunit of LP2 and lid purified from yeast (S. cerevisiae, UniProt Q06103 1-429).
T4 construct: Rpn7, S. cerevisiae proteasome lid subunit; source: purified from S. cerevisiae as part of LP2 or lid
T4 sequence (looked up): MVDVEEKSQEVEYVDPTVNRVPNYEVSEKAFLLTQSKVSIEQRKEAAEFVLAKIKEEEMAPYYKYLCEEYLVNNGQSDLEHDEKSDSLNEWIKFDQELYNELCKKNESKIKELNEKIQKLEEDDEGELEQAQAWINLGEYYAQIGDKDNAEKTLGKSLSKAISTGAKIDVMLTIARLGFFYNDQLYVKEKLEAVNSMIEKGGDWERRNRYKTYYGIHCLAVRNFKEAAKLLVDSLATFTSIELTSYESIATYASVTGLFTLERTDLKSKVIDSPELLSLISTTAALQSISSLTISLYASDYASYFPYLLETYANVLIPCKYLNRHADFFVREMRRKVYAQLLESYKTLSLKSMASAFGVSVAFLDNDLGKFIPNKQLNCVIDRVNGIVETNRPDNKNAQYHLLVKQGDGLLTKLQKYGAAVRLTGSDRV
As to the kind of experiment: cross-linking; QCLMS of LP2 purified from yeast as a whole complex: BS3-d0 / BS3-d4 at 1:200 protein to cross-linker, Buffer HA, 30°C 1 h; monomeric cross-linked complex cut from SDS-PAGE, trypsin, LC-MS/MS.

The target of test [6] is T2, Rpn3, subunit of LP2 and lid purified …. The test is described as above.
Test [7] has the same target. As to the kind of experiment: cross-linking; QCLMS of lid purified from yeast as a whole complex: BS3-d0 / BS3-d4 at 1:200 protein to cross-linker, Buffer HA, 30°C 1 h; monomeric cross-linked complex cut from SDS-PAGE, trypsin, LC-MS/MS.

T1 sequence (P43588 whole entry, one chain of several): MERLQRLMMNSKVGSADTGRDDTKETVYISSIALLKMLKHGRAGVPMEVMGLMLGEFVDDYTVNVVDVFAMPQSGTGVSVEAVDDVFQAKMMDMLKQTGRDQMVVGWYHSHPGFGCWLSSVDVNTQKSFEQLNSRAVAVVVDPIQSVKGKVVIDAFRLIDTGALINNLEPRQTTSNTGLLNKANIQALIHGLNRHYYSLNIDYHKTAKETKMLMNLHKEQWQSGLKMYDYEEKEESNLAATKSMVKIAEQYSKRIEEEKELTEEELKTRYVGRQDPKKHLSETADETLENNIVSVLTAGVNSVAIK

B1: Rpn12-E271K, recombinant (natural protein, S. cerevisiae, UniProt P32496 1-274, looked up)
chain: MPSLAELTKSLSIAFENGDYAACEKLLPPIKIELIKNNLLIPDLSIQNDIYLNDLMITKRILEVGALASIQTFNFDSFENYFNQLKPYYFSNNHKLSESDKKSKLISLYLLNLLSQNNTTKFHSELQYLDKHIKNLEDDSLLSYPIKLDRWLMEGSYQKAWDLLQSGSQNISEFDSFTDILKSAIRDEIAKNTELSYDFLPLSNIKALLFFNNEKETEKFALERNWPIVNSKVYFNNQSKEKADYEDEMMHEEDQKTNIIEKAMDYAISIKNIV
notes: Rpn12, S. cerevisiae proteasome lid subunit, Glu271 to lysine
As to B1, in test [1], the binding result is given as “binds”.

B2: Rpn6, subunit of LP2 and lid purified from yeast (natural protein, S. cerevisiae, UniProt Q12377 1-434, looked up)
chain: MSLPGSKLEEARRLVNEKQYNEAEQVYLSLLDKDSSQSSAAAGASVDDKRRNEQETSILELGQLYVTMGAKDKLREFIPHSTEYMMQFAKSKTVKVLKTLIEKFEQVPDSLDDQIFVCEKSIEFAKREKRVFLKHSLSIKLATLHYQKKQYKDSLALINDLLREFKKLDDKPSLVDVHLLESKVYHKLRNLAKSKASLTAARTAANSIYCPTQTVAELDLMSGILHCEDKDYKTAFSYFFESFESYHNLTTHNSYEKACQVLKYMLLSKIMLNLIDDVKNILNAKYTKETYQSRGIDAMKAVAEAYNNRSLLDFNTALKQYEKELMGDELTRSHFNALYDTLLESNLCKIIEPFECVEISHISKIIGLDTQQVEGKLSQMILDKIFYGVLDQGNGWLYVYETPNQDATYDSALELVGQLNKVVDQLFEKASVLY
notes: Rpn6, S. cerevisiae proteasome lid subunit; Also stands as the whole protein for the region row on the E. coli truncations; source: purified from S. cerevisiae as part of LP2 or lid
With B2, the binding result in test [2] and in test [3] was “binds” in each case.

B3: Sem1, subunit of LP2 and lid purified from yeast (natural protein, S. cerevisiae, UniProt O94742 1-89, looked up)
chain: MSTDVAAAQAQSKIDLTKKKNEEINKKSLEEDDEFEDFPIDTWANGETIKSNAVTQTNIWEENWDDVEVDDDFTNELKAELDRYKRENQ
notes: Sem1, S. cerevisiae proteasome lid subunit; source: purified from S. cerevisiae as part of LP2 or lid
With B3, the binding result in test [4], in test [5] and in test [6] was “binds” throughout.

As for B4, the binding result in test [7] is given as “binds”.

(Values after publication PMC4601081, “A Single α Helix Drives Extensive Remodeling of the Proteasome Lid and Completion of Regulatory Particle Assembly” (Cell, 2015).)
